Patent WO2023219147A1

Target: human CCR8 (human)
Assay: flow cytometry on CD4-gated tumor-infiltrating cells of ovarian cancer; APC-labeled L263G8 2 ug/mL

positive rate of the FoxP3-positive CCR8-positive fraction: 46.6%
Substance: anti-human CCR8 antibody L263G8 (BioLegend)
